{"source": "paper PMC7076459", "about": "“Biochemical and Molecular Characterization of PvNTD2, a Nucleotidase Highly Expressed in Nodules from Phaseolus vulgaris” (Plants, 2020)", "molecules": {"B1": {"name": "PvNTD2 (Phaseolus vulgaris) (protein)", "chain": "DSPSAHQHRVFPRPLIVEYAGVAEMSEEVRLRCGAWRVAGEANNLGAWRTVPEECADYVKEYMTGKGYLVDLEMVSKEAEEFAKSVKLSDDGKDAWIFDIDETLLSNLPYYAAHGYGLEIFDHEKFNDWVEEGVAPSLQPSLKLYEDVLKLGFKVILLTGRSERHRSVTVDNLINAGFKEWDHLILRSSDDQGKRAVVFKSEKRSEMEKDGYRILGNSGDQWSDLIGSSLSVRSFKLPNPMYYIS", "notes": "ORF without predicted signal peptide (cleavage predicted between 24 and 25)"}}, "key": {"PvNTD2": {"molecular_target": "T1, PvNTD2 (Phaseolus vulgaris, UniProt V7AIP8)", "T1 construct": "gene PHAVU_011G182400g; ORF without predicted signal peptide (cleavage predicted between 24 and 25)", "T1 sequence (V7AIP8 25-269)": "B1 chain", "test": "phosphate release, inhibition of phosphatase activity", "assay_type": "biochemical", "conditions": "2 mM UMP substrate (other nucleotides also tested), pH 7, 1 mM MgCl2, 37 °C; reaction product"}, "[1]": {"substrate": "O=c1[nH]c(=O)c2ncn([C@@H]3O[C@H](COP(=O)(O)O)[C@@H](O)[C@H]3O)c2[nH]1", "test": "phosphate release, Hanes-Woolf plot", "assay_type": "biochemical, Phaseolus vulgaris", "conditions": "50 mM TES-NaOH pH 7, 1 mM MgCl2, 37 °C", "excerpt": "(§1) phosphate release, Hanes-Woolf plot on PvNTD2"}, "[2]": {"substrate": "O=c1ccn([C@@H]2O[C@H](COP(=O)(O)O)[C@@H](O)[C@H]2O)c(=O)[nH]1", "test": "phosphate release, Hanes-Woolf plot", "assay_type": "biochemical, Phaseolus vulgaris", "conditions": "50 mM TES-NaOH pH 7, 1 mM MgCl2, 37 °C", "excerpt": "as §1"}, "[3]": {"substrate": "Nc1ncnc2c1ncn2[C@@H]1O[C@H](COP(=O)(O)O)[C@@H](O)[C@H]1O", "test": "phosphate release, Hanes-Woolf plot", "assay_type": "biochemical, Phaseolus vulgaris", "conditions": "50 mM TES-NaOH pH 7, 1 mM MgCl2, 37 °C", "excerpt": "as §1"}, "[4]": {"substrate": "Cc1cn([C@H]2C[C@H](O)[C@@H](COP(=O)(O)O)O2)c(=O)[nH]c1=O", "test": "phosphate release, Hanes-Woolf plot", "assay_type": "biochemical, Phaseolus vulgaris", "conditions": "50 mM TES-NaOH pH 7, 1 mM MgCl2, 37 °C", "excerpt": "as §1"}}, "data": [{"molecule": "Nc1ncnc2c1ncn2[C@@H]1O[C@H](CO)[C@@H](O)[C@H]1O", "note": "[adenosine]", "values": [{"measurement": "% activity at 0.2 mM", "setting": "PvNTD2", "result": "The activity of the recombinant protein was strongly inhibited in the presence of adenosine"}]}, {"molecule": "B1", "values": [{"measurement": "Km", "setting": "[1]", "result": 95, "unit": "µM"}, {"measurement": "Vmax", "setting": "[1]", "result": 4.22, "unit": "µmol/min/mg"}, {"measurement": "Km", "setting": "[2]", "result": 39, "unit": "µM"}, {"measurement": "Vmax", "setting": "[2]", "result": 4, "unit": "µmol/min/mg"}, {"measurement": "Km", "setting": "[3]", "result": 11, "unit": "µM"}, {"measurement": "Vmax", "setting": "[3]", "result": 1.46, "unit": "µmol/min/mg"}, {"measurement": "Km", "setting": "[4]", "result": 63, "unit": "µM"}, {"measurement": "Vmax", "setting": "[4]", "result": 4.08, "unit": "µmol/min/mg"}]}]}
